The record followed here is US20230106247A1 (L AND L BIO CO LTD NINGBO CHINA, published 2023).

Assay [1] deals with T1, human Sirpα-V1-his (human, UniProt P78324 31-373).
T1 construct: range 31-373; Bought (Sino Biological 11612-H08H) or expressed in-house; also called hSirpα-V1; hSirpα-V1-his
The experiment in a line: blocking ELISA, competitor CD47-hFc. As to the method: (§1) The antigens PD-1 and Sirpα expressed according to the method of Example 1 were diluted with a PBS buffer at pH7.4 to a concentration of 2 μg/mL, added into a 96-well ELISA plate (Corning, CLS3590-100EA) at a volume of 50 μL/well, and incubated at 37° C. for 2 hours. After the liquid was discarded, the wells were added with a blocking solution of 5% skimmed milk (Sangon Biotech (Shanghai) Co., Ltd., A600669-0250) formulated with PBS at 200 μL/well, and incubated at 37° C. for 3 hours for blocking. […] The plate was washed with PBST for 5 times, added with 50 μL/well of HRP-labeled secondary antibody (GenScript Biotechnology Co., Ltd., M00091) diluted at 1:1000, and incubated at 37° C. for 1 hour. The plated was washed with PBST for 5 times, then added with 50 μl/well of TMB chromogenic substrate (KPL, 52-00-03), incubated at room temperature for 5-10 min, added with 50 μl/well of 1 M H₂SO₄ to stop the reaction, and read by a […] Go microplate reader (ThermoFisher, 51119200) for the absorbance value at 450 nm, and then IC₅₀ was calculated according to the OD value.

The target in the next assay is T2, human Sirpα-V1-hFc (human, UniProt P78324 31-373).
T2 construct: range 31-373; also called hSirpα (dimer); hSirpα-V1-hFc (dimer); not shown: human IgG1 Fc region at the C-terminus
The experiment in a line: blocking ELISA, competitor CD47-his. As for the experimental part:
as §1

Assay [2] has as its target human Sirpα-V2-his (human). The experiment in a line: blocking ELISA, competitor CD47-hFc. As for the experimental part: Specifically, the recombinant protein of human Sirpα-V2-his was diluted to a concentration of 2 μg/mL with a PBS buffer at pH7.4, then added into a 96-well ELISA plate (Corning, CLS3590-100EA) at a volume of 50 μL/well, and placed in an incubator at 37° C. for 2 hours. After the liquid was discarded, the wells were added with a blocking solution of 5% skimmed milk (skimmed milk powder available from Bright Dairy) diluted with PBS at 230 μL/well, and incubated in an incubator at 37° C. for 3 hours, or placed overnight at 4° C. (for 16-18 hours) for blocking. […] The plate was washed for 5 times, added with 50 μL/well of a streptavidin-HRP secondary antibody (GenScript, M00091) diluted at 1:1000, incubated at 37° C. for 1 hour, and then washed with PBST for 5 times. Each well was added with 50 μL TMB (Surmodic, Cat #TTMB-1000-01) for color development, and added with 50 μL/well of 1 M H₂SO₄ to stop the reaction. The readings on a microplate reader (MultiskanGO Thermo, Model: 51119200) were subjected to data analysis by GraphPad prism 5.

The target of assay [3] is T1, human Sirpα-V1-his. The experiment in a line: blocking ELISA, competitor CD47-hFc. As to the method:
The recombinant proteins such as human Sirpα-V1-hFc/Sirpα-V1-his were diluted to concentrations of 5 μg/mL or 2 μg/mL respectively with a PBS buffer at pH 7.4, and then added into a 96-well ELISA plate (Corning, CLS3590-100EA) at a volume of 50 μL/well, and placed in an incubator at 37° C. for 2 hours. After the liquid was discarded, the wells were added with a blocking solution of 5% skimmed milk (skimmed milk powder available from Bright Dairy) diluted with PBS at 230 μL/well, and incubated in an incubator at 37° C. for 3 hours, or placed overnight at 4° C. (for 16-18 hours) for blocking. […] The plate was washed for 5 times, added with 50 μL/well of streptavidin-HRP (GenScript, M00091) or anti-his-HRP secondary antibody (GenScript, A00612) diluted at 1:1000, incubated at 37° C. for 1 hour, and then washed with PBST for 5 times. Each well was added with 50 μL of TMB (Surmodic, Cat #: TTMB-1000-01) for color development, and added with 50 μL/well of 1 M H₂SO₄ to stop the reaction. The readings on a microplate reader (MultiskanGO Thermo, Model 51119200) were subjected to data analysis by GraphPad prism 5.
The source holds these as a separate data set.

For assay [4], the target named is T1, human Sirpα-V1-his. The experiment in a line: ELISA.
In assay [5] the target is T1, human Sirpα-V1-his. The experiment in a line: ELISA EC50 against Ref2. As for the experimental part:
(§2) Different antigens (recombinant proteins) such as the human Sirpα-V1-hFc, Sirpα-V1-his, Sirpα-V2-his, Sirpβ-his, Sirpγ-his, monkey Sirpα-his (cynoSirpα-his) or NOD-mSirpα-his described in Example 1 were diluted with a PBS buffer at pH7.4 to concentrations of 1 μg/mL, 2 μg/mL or 5 μg/mL, added into a 96-well ELISA plate (Corning, CLS3590-100EA) at a volume of 50 μL/well, and placed in an incubator at 37° C. for 2 hours. After the liquid was discarded, the wells were added with a blocking solution of 5% skimmed milk (skimmed milk powder available from Bright Dairy) diluted with PBS at 230 μL/well, and incubated in an incubator at 37° C. for 3 hours, or placed overnight at 4° C. (for 16-18 hours) for blocking. […] The plated was washed with PBST for 5 times, then added with 50 μL/well of TMB chromogenic substrate (KPL, Cat #: 52-00-03), incubated at room temperature for 10-15 min, added with 50 μL/well of 1 M H₂SO₄ to stop the reaction, and read by a […] Go microplate reader (ThermoFisher, Cat #: 51119200) for the absorbance value at 450 nm, and then a clone with high binding activity was selected or a EC₅₀ value was calculated according to the OD value.

Assay [6] deals with human Sirpα-V2-his (human). The experiment in a line: ELISA EC50 against Ref2. As for the experimental part: as §2

Read-outs that look alike come from different tables or passages of the source.

human Sirpα-V2-his (human), sequence (chain, as listed by the source): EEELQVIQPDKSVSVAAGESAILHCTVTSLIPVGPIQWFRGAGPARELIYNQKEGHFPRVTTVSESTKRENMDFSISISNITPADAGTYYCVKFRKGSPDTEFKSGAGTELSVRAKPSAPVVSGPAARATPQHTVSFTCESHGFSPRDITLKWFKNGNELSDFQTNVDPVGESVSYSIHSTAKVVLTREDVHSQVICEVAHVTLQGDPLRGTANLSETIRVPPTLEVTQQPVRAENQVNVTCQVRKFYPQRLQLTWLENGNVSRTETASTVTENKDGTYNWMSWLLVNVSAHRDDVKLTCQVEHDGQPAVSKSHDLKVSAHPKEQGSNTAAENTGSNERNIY

B1: humanized antibody mab14-h16 (antibody, human IgG4 S228P, kappa, V domains shown)
VH: QVQLVQSGAEVKKPGASVKVSCKASGYNFNIYWINWVRQAPGQGLEWIGNIYPSSISTNYNEKFKTRATLTVDKSTSTVYMELSSLRSEDTAVYYCARSEGTYYGGRYEGDWFGYWGQGTLVTVSS
VL: DIQMTQSPSSLSASVGDRVTITCRASQDIRNYLNWYQQKPGKAPKLLIYFTSTLHSGVPSRFSGSGSGTDFTLTISSLQPEDFATYYCQQGNTLPWTFGGGTKVEIKR
notes: hIgG4, κ
With B1, the IC50 with human Sirpα-V1-his [1] was 6.14 nM; in the assay with human Sirpα-V1-hFc it was 3.88 nM; with human Sirpα-V2-his [2], 6.29 nM; with human Sirpα-V1-his [3], 10.1 nM. The molecule also displayed an EC50 in the assay with human Sirpα-V1-his [4] of 0.087 nM. The “fold stronger binding than Ref2” value in the assay with human Sirpα-V1-his [5] turned out to be 1.4 fold; in the assay with human Sirpα-V2-his [6], 2.9 fold.
